Reference: the supplement of paper PMC9170038

Tested on: MS2 coat protein
Test: apparent KD of MS2 coat protein; designed switch direction (-1 OFF switch, 1 ON switch): -1; higher = weaker reporter binding
In short: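 Each step of the titration lasted 0.8–1.5 h at the lowest concentration and 10–20 min at the highest. The protein, SNAP-549-labelled MS2 coat protein, went from 0.7 or 1.5 nM doubling to 3 µM over RNA switches transcribed on Illumina chips by stalled E. coli RNA polymerase. Normalised cluster fluorescence was curve-fitted, and the per-design median over clusters is given as apparent KD.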

[1] = input ligand: microRNA oligo, concentration not stated
[2] = Eterna round: R95, input ligand: microRNA oligo, concentration not stated
[3] = Eterna round: R95, input ligand: FMN 200 uM
[4] = Eterna round: R95, input ligand: none

Row | Sequence | apparent KD of MS2 coat protein (input ligand: FMN 200 uM) [nM] | apparent KD of MS2 coat protein (input ligand: none) [nM] | other results
1 | CAAAGUUGGUAAGGAUAUCCUACAUUAUUCUGACCCGUGCAAGCUACAUGAGGAUCACCCAUGUGGGAGAAGGUGCGUUAAAGU [Design 3] (Eterna round: R96, puzzle: Exclusion NG 2) | 23.4 | 21.7 | apparent KD of MS2 coat protein [1]: 17.4 nM
2 | CUUUUGUGAGGAUAUUCAUAGUAGGGUCAUGGCAUUAUUAUGAAGAAGGCACAUGAGGAUCACCCAUGUACCUU [EX4 #49] (Eterna round: R97, puzzle: Exclusion 4) | 32.8 | 21.5 | 
3 | UUUUUUGUUGUGAGGAUAUCGUAUUUUUUUUGUUACGAGAAGGCACAUGAGGAUCACCCAUGUUUUUUGAUGUU [JR_BMOE4_Sub065] (puzzle: Brourd's mod of Exclusion 4) |  |  | apparent KD of MS2 coat protein [2]: 28.4 nM
4 | GAUCAACAUGAGGAUCACCCAUGUGAGGAUAUGAUACUAUGUACUUCGGUACAUAGUAUCAGAAGGCAUGUGAA [Ex1-3: 77] (puzzle: Exclusion 1) |  |  | apparent KD of MS2 coat protein [2]: 80.1 nM
5 | CUAUUCCGAGGAUAUACAUGAGGAUCACCCAUGUCGGGCCUCUGCGUUUAGCGCGUAAGUAGAAGGUGGGUUUC [JL Riri mod 8] (puzzle: Exclusion 3) |  |  | apparent KD of MS2 coat protein [2]: 27.1 nM
6 | CUGUUUUCCGCAGGAUAUGCUCCUCCAUUAUUAGCAGAAGGGCGUUGAACAUGAGGAUCACCCAUGUAUGUAAUUGAUUAUUGC [JR_ExcNG1_Sub071] (Eterna round: R96, puzzle: Exclusion NG 1) | 54.3 | 36.3 | apparent KD of MS2 coat protein [1]: 26.3 nM
7 | UUGUUAUGUGUAGGAUAUGCGUGUUAUUAUUAUGCAGAAGGACAUGAGGAUCACCCAUGUGUAUUAUUAUUAUAUAUUAUAUAU [Title] (Eterna round: R96, puzzle: Exclusion NG 1) | 20 | 19.9 | apparent KD of MS2 coat protein [1]: 15.8 nM
8 | GUACUGAAGCUUUGCUUUAGUCGUACAUGAGGAUCACCCAUGUAGGAUAUGGUAGGCAUAGCUUACUAGAAGGAUAGAGUGAUC [Mat - Exclusion NG 3 - Mod of JL - D64] (Eterna round: R96, puzzle: Exclusion NG 3) | 112 | 81.3 | apparent KD of MS2 coat protein [1]: 86 nM
9 | UAUUUGUCAGGAUAUGAGUCGUAGAACAAUAGUACUACGUCUCAGAAGGGACAUGAGGAUCACCCAUGUGCCUC [Fiskers Ex 4 Super Stable 44 mod 29] (puzzle: Exclusion 4) |  |  | apparent KD of MS2 coat protein [2]: 25.5 nM
10 | GGUGCACAUGAGGAUCACCCAUGUCAGGAUAUGUUACCACGUUACGAUCGAGUGACGAGCAGAAGGGACUGCAU [Eternabot (L2) Solution 68] (Eterna round: R97, puzzle: Exclusion 1) | 39.4 | 29.6 | 
11 | AAAACUGGUGUUAGGAUAUUCCUAGGAAAGCUUGGGAAGAAGGGACAUGAGGAUCACCCAUGUCCAGUGAUCAG [Eternabot (Original) Solution 19] (Eterna round: R97, puzzle: Brourd's mod of Exclusion 4) | 19.1 | 21.6 | 
12 | GCGUAGUAUGUAGGAUAUCGGUCAGUUUCUGAUCGAGAAGGACAUGAGGAUCACCCAUGUAAAUUGCCCGCUUUGUGGGUACGC [JL ENG1 3.60] (Eterna round: R96, puzzle: Exclusion NG 1) | 59.3 | 22.5 | apparent KD of MS2 coat protein [1]: 19.1 nM
13 | AGCCACAGAGGAUAUACAUACAUCCAGUAGUAGAGAAUACUACAUGAGGAUCACCCAUGUAGAAGGCUGUGGCA [Omei Ex2 BD B14] (Eterna round: R97, puzzle: Exclusion 2) | 316 | 438 | 
14 | CUCAUGUGAGGAUAUCAGUAGUAAAAAAAUAAAAUUACUACUGAGAAGGCACAUGAGGAUCACCCAUGUGCCAA [EX4 337: Super Stable 37] (Eterna round: R96, puzzle: Exclusion 4) |  |  | apparent KD of MS2 coat protein [1]: 12.8 nM
15 | UUUUUAGUGCUUUUUAAGUACAUGAGGAUCACCCAUGUACUUGUCUGGUGGUCCGGACAAGCUUUUUGCUCGUCUAA [Sensor v3 - turn-off variant 1 - 1] (puzzle: Sensor v3, turn-off variant 1) |  |  | apparent KD of MS2 coat protein [3]: 48.9 nM; apparent KD of MS2 coat protein [2]: 33 nM; apparent KD of MS2 coat protein [4]: 59.7 nM
16 | UAGAUGGGAGGAUAUACGUAGAUACAGAUUCAUGUAGUGCUACAUGAGGAUCACCCAUGUAGAAGGCCCGUCUU [JL-ex2-2.19 Mayanne mod] (puzzle: Exclusion 2) |  |  | apparent KD of MS2 coat protein [2]: 35.2 nM

Row | Sequence | apparent KD of MS2 coat protein (input ligand: FMN 200 uM) [nM] | apparent KD of MS2 coat protein (input ligand: none) [nM] | other results
17 | GGCAUGUAAGGAUAUGCCACUGAGUGCUUUGCGCUCAGAAAGCAGAAGGUACAUGAGGAUCACCCAUGUGAUAA [jl-ex4-4.53 ViennaUCT mod] (Eterna round: R97, puzzle: Exclusion 4) | 945 | 650 | 
18 | UAACUACAUGAGGAUCACCCAUGUCAGGAUAUGCCAUUAAAUUAACAUCAACAUACGGGUAGAAGGGACAACGU [1st #2] (Eterna round: R97, puzzle: Exclusion 1) | 22.2 | 25.6 | 
19 | GCCGUGUUAGGAUAUCGCUCGACGAAUAGUUGUCGGAGGAACGAGAAGGAACAUGAGGAUCACCCAUGUGUCAC [Eternabot (L1) Solution 33] (Eterna round: R97, puzzle: Exclusion 4) | 57.5 | 21.4 | 
20 | CAUGAUCUUCGGAUCAUGGACAUGAGGAUCACCCAUGUCACGAGCAGAUCCUCAUGCAAGCUUUUUGCUCGUCUUAU [Sensor v3 - Turn-off variant 1 - 35] (puzzle: Sensor v3, turn-off variant 1) |  |  | apparent KD of MS2 coat protein [3]: 62.9 nM; apparent KD of MS2 coat protein [2]: 8.73 nM; apparent KD of MS2 coat protein [4]: 85.2 nM
21 | UGAGCAUCAGGAUAUACAAGGCGACCGUGAGGUCGAGGGUUACAUGAGGAUCACCCAUGUAGAAGGGAUGUUCU [jl-ex2-4.09] (Eterna round: R97, puzzle: Exclusion 2) | 196 | 43.4 | 
22 | UUUGAUUAUGUGAGGAUAUACUGUUUGUAUUGAUUGUAGAAGGUACAUGAGGAUCACCCAUGUUUUGUAUUUAU [JR_BME4_Sub036] (puzzle: Brourd's mod of Exclusion 4) |  |  | apparent KD of MS2 coat protein [2]: 17.1 nM
23 | AGAACAUCAGGAUAUCCAUGACACUACAUGAGGAUCACCCAUGUGAAUCUCCUCAAGGCGGGAGAAGGGAUGUUUG [Eternabot (L1) Solution 34] (Eterna round: R97, puzzle: Exclusion 5) | 272 | 86.7 | 
24 | UUUAAUUUAAUUAAGAUCACAUGAGGAUCACCCAUGUAUAUAUAGGAUAUCAGCUCGAUUAGAGCUGAGAAGGAUAUAUACAUA [ExNG3/4-A1] (Eterna round: R96, puzzle: Exclusion NG 3) | 164 | 58.9 | apparent KD of MS2 coat protein [1]: 215 nM
25 | UACAUGAGGAUCACCCAUGUUUUGUCGUGUAUGGUAUUUAUCUAGGAUAUCAAUUUAGUCAUUUAUGAGAAGGAGAAUAUUAAU [JMF's solution 74] (Eterna round: R96, puzzle: Exclusion NG 3) | 35.5 | 38.4 | apparent KD of MS2 coat protein [1]: 28.6 nM
26 | AAUUAGUGAGGAUAUUUGAACAGUGGCAGUAGCCAGUGCAUGAAGAAGGCACAUGAGGAUCACCCAUGUUAUAA [EX4 #58] (Eterna round: R97, puzzle: Exclusion 4) | 70.5 | 39.8 | 
27 | GCUAUGACUGUGAGGAUAUGGACCGGGCUCUCGGAUUAGAAGGCACAUGAGGAUCACCCAUGUGAUCACGUACU [Eternabot (L2) Solution 87] (Eterna round: R97, puzzle: Brourd's mod of Exclusion 4) | 42.2 | 27.5 | 
28 | UAUGGUCUUGAGGAUAUACCAGGGUGAGUCCAGGUAGAAGGUAGGACAUGAGGAUCACCCAUGUGACGUAGUGU [Eternabot (L2) Solution 49] (Eterna round: R97, puzzle: Exclusion 6) | 434 | 354 | 
29 | UAUACCACAGUUAGGAUAUUCUAAGUAGUAGCUAAGAAGAAGGAACAUGAGGAUCACCCAUGUGGAGCCAGCGU [Eternabot (L1) Solution 99] (Eterna round: R97, puzzle: Brourd's mod of Exclusion 4) | 45.3 | 18.1 | 
30 | AAAUAGGCAGGAUAUACAUGAGGAUCACCCAUGUGCCUAUGAAAGGUAAUUUUGAAAGGUAGAAGGGCCUAAAA [ChP 13.04.2015 #4] (puzzle: Exclusion 3) |  |  | apparent KD of MS2 coat protein [2]: 10.1 nM
31 | GUGAUCUAUCAUGGGAUAAACAUGAGGAUCACCCAUGUAGACAAGUUUUUUGCUCGUCUUAUAAUAAGAUAGAUCAC [Antenna 1 - Jieux - Sensor, turn-off variant 1] (Eterna round: R97, puzzle: Sensor, turn-off variant 1) | 37.2 | 39.4 | 
